Among the data in PMC5148173 are Kd and fold decrease in the binding affinity against wt N TAIL values, retold here.

Assay [1] deals with N-terminally hexahistidine tagged wt N_TAIL (C-terminal domain of the MeV nucleoprotein N, aa 401-525) (measles virus (Edmonston B)) (UniProt P04851). Nature of the assay: ITC. Particulars: domain or fragment.
Assay [2] has as its target N-terminally hexahistidine tagged N_TAIL R497G (measles virus (Edmonston B)) (UniProt P04851). Nature of the assay: ITC; N_TAIL (25-180 uM) in the cell, XD (300-960 uM) in the microsyringe, 19 injections of 2 uL; 20 C; 10 mM Tris/HCl pH 8, 150 mM NaCl; single set of sites model. (In general: Isothermal titration calorimetry measures the heat released or taken up as one component is titrated into another.)

The target of assay [3] is N-terminally hexahistidine tagged N_TAIL R490S (measles virus (Edmonston B)) (UniProt P04851). Described as above.
The target in assay [4] is N_TAIL S491L fused to a Gaussia luciferase fragment (glu-PCA) (measles virus) (UniProt P04851). Nature of the assay: split reporter (BiFC, NanoBiT); KD estimated from the glu-PCA luminescence with the empirically determined equation relating luminescence and the ITC KD values (Fig 4).

The Kd is a measure of binding affinity in units of concentration. In turn, “C-terminally hexahistidine tagged MeV XD (X domain of the phosphoprotein P, aa 459-507) (from UniProt P03422 459-507)” came in with a Kd in assay [1] of 3 µM. In assay [2], “C-terminally hexahistidine tagged MeV XD (X domain of the phosphoprotein P, aa 459-507) (from UniProt P03422 459-507) (domain or fragment)” gave a Kd of 44 µM. In addition, in assay [3], the Kd worked out at 20 µM and the fold decrease in the binding affinity against wt N TAIL came to 7 fold. Regarding “XD of the monomeric split-luciferase reassembly assay (glu-PCA) (from UniProt P03422 376-507) (domain or fragment)”, the Kd in assay [4] is 85 µM.
